Source: patent publication US20210284688A1, “MUCUS-PENETRATING PEPTIDES AND SCREENING ASSAY” (BOARD OF REGENTS, THE UNIVERSITY OF TEXAS SYSTEM, priority 2016, published 2021)
Where a name gives a salt, the structure may show the parent alone. Where no end group is shown, it is not given here.

Assays:
Figure 17 = assay: Figure 17
Description: Table printed on a drawing sheet, Figure 17
AK10 and Dextran 40 kDa are controls.
First reader's note: The Sample column holds peptide sequences with SEQ ID NOs as well as non-peptide controls; on the sheet the PBS/CM sub-heads stand in one merged head cell, split here into a second head row.

Figure 15 = assay: Figure 15
Description: Table printed on a drawing sheet, Figure 15

Compound	De/10^-5 cm^2 s^-1 | CM (Figure 17)	De/10^-9 cm^2 s^-1 | CM (Figure 15)
O=C1OC2(c3ccc(O)cc3Oc3cc(O)ccc32)c2ccccc21 [Fluorescein Na Salt]	1.05 10^-5 cm^2 s^-1	–
M13 YNSPTHHGGGS (SEQ ID NO: 31) (also: displayed on M13 phage)	–	1.45 10^-9 cm^2 s^-1
M13 ISLPSPTGGGS (SEQ ID NO: 29) (also: displayed on M13 phage)	–	4.00 10^-9 cm^2 s^-1
M13 SSQLSRPGGGS (SEQ ID NO: 30) (also: displayed on M13 phage)	–	1.72 10^-9 cm^2 s^-1
